Results reported in the supplement of paper PMC9732359.
± gives the uncertainty stated by the source.

Assay: protein stability index of a GFP-peptide fusion (yeast GPS) (PSI 1-4); higher = more stable; sorted into four equal gates, so the index is relative within each strain
Summary of the method: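 Plasmids in a pooled yeast library fused tiled 17-residue yeast protein peptides downstream of GFP and also expressed Cherry. Mid-log cultures grown without leucine were sorted into four equal gates by GFP/Cherry fluorescence ratio. Each gate's plasmids were PCR-amplified and Illumina-sequenced, and reads were matched to strains by barcodes. The protein stability index is derived by multiplying each gate's read frequency by its gate number and summing the results.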

Sequence | protein stability index (doa10∆) | protein stability index (pdr5∆) | protein stability index (san1∆) | protein stability index (ubr1∆)
DTYKRFKYLLGVTDLFR [ISW2] | 1.85 ± 0.045 | 1.37 ± 0.052 | 1.21 ± 0.11 | 1.34 ± 0.075
NNRQLPYLVANVVEVMD [RPT5] | 2.4 ± 0.11 | 2.78 ± 0.07 | 2.58 ± 0.14 | 2.71 ± 0.074
IHFREHQSELIIKQTVH [YMR129W/POM152] | 2.46 ± 0.072 | 2.85 ± 0.069 | 2.48 ± 0.097 | 2.21 ± 0.053
VSSRVRGYTCQFVDMVL [FAS1] | 1.76 ± 0.09 | 1.94 ± 0.07 | 1.44 ± 0.094 | 2.02 ± 0.081
EEREGTDQSTEEEKSVD [CSL4] | 3.16 ± 0.16 |  |  | 
LGHKELKVRKGHIAKLM [RPB2] | 2.54 ± 0.066 | 2.53 ± 0.064 | 1.97 ± 0.1 | 2.72 ± 0.047
DPESRTQSYNNQNTLKE [POP1] | 2.72 ± 0.069 | 2.69 ± 0.056 | 2.88 ± 0.079 | 2.79 ± 0.05
QAAGGLSIRLTNQLKSL [RPN8] | 2.75 ± 0.085 | 2.57 ± 0.088 | 2.29 ± 0.11 | 2.19 ± 0.06
VSTETFEQPSQREEAKK [RPL27A] | 2.9 ± 0.061 | 2.73 ± 0.07 | 2.73 ± 0.054 | 3.1 ± 0.067
KTVQSMTQRAIQSAESI [SWI3] | 2.5 ± 0.11 | 1.8 ± 0.079 | 2.53 ± 0.13 | 1.82 ± 0.12
DTKIDQVNGNIRKVSND [SMC3] | 3.47 ± 0.16 | 3.07 ± 0.24 | 3 ± 0.12 | 3.27 ± 0.13
RPDGVHVINVGKTWEKL [RPS0A] | 3.33 ± 0.12 | 3.41 ± 0.15 | 3.4 ± 0.13 | 3.04 ± 0.081
DLKDILEKVVPLINVVV [BRR2] | 2.22 ± 0.12 | 1.91 ± 0.077 | 2.37 ± 0.15 | 2.51 ± 0.065
GAGGLNPFTSATSSTNA [YOR098C/NUP1] | 2.04 ± 0.12 | 2.07 ± 0.18 | 2.69 ± 0.18 | 2.94 ± 0.13
LSGLAQRKTNGASNGDD [BRN1] | 3.15 ± 0.17 | 3.29 ± 0.17 | 3.05 ± 0.077 | 3.6 ± 0.15
DFTLPEDFAPLLAEEEE [PRP8] | 3.42 ± 0.19 | 3.64 ± 0.22 | 3.23 ± 0.11 | 3.2 ± 0.084
ANEQLKLFNRIVERETN [CSN12] | 2.5 ± 0.12 | 2.73 ± 0.16 | 1.71 ± 0.24 | 2.81 ± 0.15
VRIDLGTIDKLQLELTI [RPO31] | 1.99 ± 0.049 | 2.21 ± 0.052 | 2.5 ± 0.053 | 2.91 ± 0.042
TELKKKLDDLENTKDNL [SMC1] | 3.01 ± 0.11 | 2.94 ± 0.12 | 3.09 ± 0.12 | 2.72 ± 0.14
LLPLVVSNISCLTGTVA [ECM29] | 1.25 ± 0.041 | 1.38 ± 0.034 | 1.38 ± 0.094 | 1.45 ± 0.037
LALENGEITKTENEKFI [NUT1] | 3.28 ± 0.15 | 3.45 ± 0.11 | 3.44 ± 0.066 | 3.3 ± 0.14
